The values below come from patent publication CN111138527A (INST MILITARY MEDICINE ACADEMY MILITARY SCIENCES PLA, dated 2020).

In assay [1] the target is GP 95-295 (Ebola virus (EBOV), UniProt Q05320 95-295). The assay is described as follows: ELISA on coated truncated GP.
Assay [2] addresses sGP (Ebola virus (EBOV), UniProt P60170 33-295). The assay is described as follows: ELISA on coated truncated GP. A general note: An ELISA detects its analyte on a solid surface through an enzyme-linked reagent.
Assay [3] has as its target GP1 (Ebola virus (EBOV), UniProt Q05320 33-501). Briefly: ELISA on coated truncated GP.
Assay [4] deals with T1, EBOV GP (Ebola virus (EBOV), UniProt Q05320 33-650).
T1 sequence: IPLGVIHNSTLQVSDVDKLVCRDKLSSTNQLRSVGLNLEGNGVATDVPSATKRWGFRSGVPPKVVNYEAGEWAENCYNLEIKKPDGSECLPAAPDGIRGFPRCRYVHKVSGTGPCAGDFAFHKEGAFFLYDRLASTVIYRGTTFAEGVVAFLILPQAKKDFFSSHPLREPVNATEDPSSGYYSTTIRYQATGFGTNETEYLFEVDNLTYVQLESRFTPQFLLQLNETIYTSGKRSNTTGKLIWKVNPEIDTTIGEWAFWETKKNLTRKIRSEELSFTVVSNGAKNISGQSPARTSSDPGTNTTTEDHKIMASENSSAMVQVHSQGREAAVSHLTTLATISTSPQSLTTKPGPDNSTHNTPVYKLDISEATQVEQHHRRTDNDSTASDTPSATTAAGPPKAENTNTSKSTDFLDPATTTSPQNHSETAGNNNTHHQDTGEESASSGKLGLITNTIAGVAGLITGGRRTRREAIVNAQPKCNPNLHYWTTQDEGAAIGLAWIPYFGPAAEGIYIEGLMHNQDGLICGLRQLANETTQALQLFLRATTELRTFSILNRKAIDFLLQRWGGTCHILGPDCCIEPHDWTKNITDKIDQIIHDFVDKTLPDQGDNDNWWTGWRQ
Briefly: ELISA, EBOV GP coated at 1 μg/mL.

B1: 抗埃博拉病毒糖蛋白GP1亚基的单克隆抗体4F1 (antibody, V domains shown)
VH: EVQLVESGGGLVQPGGSLRLSCAASGFSFRIYDMHWVRQVTGRGLEWVSAIGSASDTYYRDSVKGRFTISRENAKNSLYLQMNSLRAGDTAVYYCARASFGELMFDLWGQGTLVTVSS
VL: DIQMTQSPSSLSLSPGERATLSCRASQSVGSSLAWYQQKPGQAPRLLIYAASSRATGFPDRFSGSGSGTDFTLTISRLEPEDFAVYYCQQYGGSPLTFGGGTKVEIKT
B1: the concentration for a half-maximal effect (EC50) in assay [1] is 33 ng/mL; in assay [2], 3.9 ng/mL; in assay [3], 7.8 ng/mL; in assay [4] it was 5.7 ng/mL. Moreover, in assay [1], the “fold decrease of binding activity relative to GPdTM” value was ~5 fold.

The term EC50 denotes the concentration that produces a half-maximal response. The low end stands for higher potency in that assay, the high end for lower potency in that assay.
